# “Also recorded” adds a separate entry of the source.
# B1: Sense-D1: input RNA, SEQ ID NO: 33 (nucleic acid)
# sense: TGTGCTCGCTTCGGCAGCACATATACTAACATTGGAACGATCCTGCAGCGGGTGTGAGGAGCGCGGCGCGGCAGGTGAGTGCGCCCGAGGGTCGAGCGCTCAGGGATTCTGGACACTTATCCCTTCATCTTTCTTCTGTCTCTTCCCTCTACCAGCCTCTCTCTCTCTGTCTCTC
# B2: Sense-C1: input RNA, SEQ ID NO: 32 (nucleic acid)
# sense: TGTGCTCGCTTCGGCAGCACATATACTAACATTGGAACGATCCTGCAGGGTCCCCAAAGCTGGCTCCTAGTCCGCCTGCCCTCCACGGCCCCCGCCTGGGGTTAGTGCATGAAGAGTGTTACCAGGACGGGGTCTACCCAGTGCTCATCTATGTCATAGGAAGAGCATGAGCTCA
# B3: Sense-B1: input RNA, SEQ ID NO: 31 (nucleic acid)
# sense: TGTGCTCGCTTCGGCAGCACATATACTAACATTGGAACGATCCTGCAGCGGAGGCGGAGGGCGAGGGGCGGGGAGCGCCGCCTGGAGCGCGGCAGGTGAGGCAGTTTCTCCATCTGGAAATGCTCCCCACCATATTGATTTACCCAGTACACCCCATTCTTCAAGGCTCAGGCCA
# B4: Antisense-1: input RNA, SEQ ID NO: 4 (nucleic acid)
# antisense: TCAGATCGCCTGGAGACGCCATCCACGCTGTTTTGACCTCCATAGAAGACACCGGGACCGATCCAGCCTCCCCTCGAAGCTGATCCTGAGAACTTCAGGCTCCTGGGCAACGTGCTGGTCTGTGTGCTGGCCCATCACTTTGGCAAAGAATTCCTTGAGCCATTCACCTGGCTAGGGTTACATTCCATTTTGATGGTGACCCTGGCTGGGGGTTGAGACAGCCAATCCTGCTGAGGGACGCGTGGGCTCATCTTGGAAGTCTGTCCATAGTCGCTGGAGGAGGACGCGGTCATCTCTGTCTTAGCCAGGTGTGGCGTTCCGTAGGCACACTCAAACAACGACTGGTCCTCACTCACAACTGATAAGGCTTCCTGCCGCGCTCCAGGCGGCGCTCCCCGCCCCTCGCCCTCCGCCTCCGCCTCCGCCTCCTGCTTAGCTCGCGCCTACTCAAGCTTATCGATACCGTCGACCTCGAGGGCCCAGATCTAATTCACCCCACCAGTGCAGGCTGCCTATCAGAAAGTGGTGGCTGGTGTGGCTAATGCCCTGGCCCACAAGTATCACTAAGCTCGCTTTCTTGCTGTCCAATTTCTATTAAAGGTTCCTTTGTTCCCTAAGTCCAACTACTAAACTGGGGGATATTATGAAGGGCCTTCCGGAGCATCTGGATTCTGCCTAATAAAAAACATTTATTTTCATTGCAAAAAAA
# B5: Antisense-5B: input RNA, SEQ ID NO: 14 (nucleic acid)
# antisense: TGTGCTCGCTTCGGCAGCACATATACTAACATTGGAACGATCCTGCAGCTTGAGCCATTCACCTGGCTAGGGTTACATTCCATATTGATGGTGACCCTGGCTGGGGGTTGAGACAGCCAATCC
# modifications: input RNA, chemistry not given here
# B6: Antisense-F1: input RNA, SEQ ID NO: 25 (nucleic acid)
# antisense: TGTGCTCGCTTCGGCAGCACATATACTAACATTGGAACGATCCTGCAGAATGGATGAATACATAAAATAAATTGTGGTGGATATATACAACGGAATATCATTTAGCCTTTATTATTATTGAGAACTGTGCCGAGCCGGGCAGGACAGGATGAGGTGGACCGAAGCGCCCAGGTGC
# B7: Antisense-B1: input RNA, SEQ ID NO: 15 (nucleic acid)
# antisense: TGTGCTCGCTTCGGCAGCACATATACTAACATTGGAACGATCCTGCAGTGGCCTGAGCCTTGAAGAATGGGGTGTACTGGGTAAATCAAAATGGTGGGGAGCATTTCCAGATGGAGAAACTGCCTCACCTGCCGCGCTCCAGGCGGCGCTCCCCGCCCCTCGCCCTCCGCCTCCG
# B8: Antisense-5A: input RNA, SEQ ID NO: 13 (nucleic acid)
# antisense: TGTGCTCGCTTCGGCAGCACATATACTAACATTGGAACGATCCTGCAGGCCGCTCACCTGCCGCGCTCCAGGCGGCGCTCCCCGCCCCTCGCCCTCCGCCAGACAGGAGTGAGAGATGGAAGCTCGCGCCTACTC
# B9: Antisense-C3: input RNA, SEQ ID NO: 20 (nucleic acid)
# antisense: TGTGCTCGCTTCGGCAGCACATATACTAACATTGGAACGATCCTGCAGGTCCTGGTAACACTATTCATGCACTAACAAGTTGGTTGCCAGTGAGACTTGATTATTATGACTCTGGGAGTGCTGCCCAGGCGGGGGCCGTGGAGGGCAGGCGGACTAGGAGCCAGCTTTGGGGACC
# B10: Antisense-B2: input RNA, SEQ ID NO: 16 (nucleic acid)
# antisense: TGTGCTCGCTTCGGCAGCACATATACTAACATTGGAACGATCCTGCAGTGGCCTGAGCCTTGAAGAATGGGGTGTACTGGGTAAATCAAAATGGTGGGGAGCATTTCCAGATGGAGAAACTGCCCCTCCCCAGCCCGGACCCCGAGCCGGGACCCTGGTACCGGCGCCGCTCACC
# B11: Antisense-D1: input RNA, SEQ ID NO: 21 (nucleic acid)
# antisense: TGTGCTCGCTTCGGCAGCACATATACTAACATTGGAACGATCCTGCAGGAGAGACAGAGAGAGAGAGGCTGGTAGAGGGAAGAGACAGAAGAAAGATGAAGGGATAAGTGTCCAGAATCCCTGAGCGCTCGACCCTCGGGCGCACTCACCTGCCGCGCCGCGCTCCTCACACCCG
# B12: Antisense-E1: input RNA, SEQ ID NO: 24 (nucleic acid)
# antisense: TGTGCTCGCTTCGGCAGCACATATACTAACATTGGAACGATCCTGCAGAGGGTATTCAGTATTACTATTTGGCTTAGATAAGCTGGTAGTTACTTGCTAAAATTAATCTTTATTATAAAGCAGAAAGCCGCATTCTGACATCACTCTCCATGGACAAAGATTCTTCGCTTGATCA
# B13: Antisense-C1: input RNA, SEQ ID NO: 18 (nucleic acid)
# antisense: TGTGCTCGCTTCGGCAGCACATATACTAACATTGGAACGATCCTGCAGTGAGCTCATGCTATTCCTATGACATAGATGAGCACTGGGTAGACCCCGTCCTGGTAACACTATTCATGCACTAACCCCAGGCGGGGGCCGTGGAGGGCAGGCGGACTAGGAGCCAGCTTTGGGGACC
# B14: Antisense-G1: input RNA, SEQ ID NO: 26 (nucleic acid)
# antisense: TGTGCTCGCTTCGGCAGCACATATACTAACATTGGAACGATCCTGCAGTTTATTCATGAGAAAATTCTGGCACAATGGAAAACCCTGGCAAGCAAAAGATAGGGGCAGCAGATGTCCTGGCCTACAAAGAACTCCAAGCCCATCGTCCCTAGAAAGCATGGTCTCCCATGACCCC
# B15: Antisense-D3: input RNA, SEQ ID NO: 23 (nucleic acid)
# antisense: TGTGCTCGCTTCGGCAGCACATATACTAACATTGGAACGATCCTGCAGTGAAGGGATAAGTGTCCAGAATCCCTGGATCTGGGATGGAATAAAGGATCTGGATGGTAAACGGAGAGTGCTGGGAGCGCTCGACCCTCGGGCGCACTCACCTGCCGCGCCGCGCTCCTCACACCCG
# B16: Antisense-7: input RNA, SEQ ID NO: 10 (nucleic acid)
# antisense: TGTGCTCGCTTCGGCAGCACATATACTAACATTGGAACGATCCTGCAGCTTGAGCCATTCACCTGGCTAGGGTTACATTCCATATTGATGGTGACCCTGGCTGGGGGTTGAGACAGCCAATCCCGGACCCCGAGCCGGGACCCTGGTACCGGCGCCGCTCACCTGCCGCGCTCCAAGACAGGAGTGAGAGATGGAAGCTCGCGCCTACTC
# B17: Antisense-3: input RNA, SEQ ID NO: 6 (nucleic acid)
# antisense: TGTGCTCGCTTCGGCAGCACATATACTAACATTGGAACGATCCTGCAGCTTGAGCCATTCACCTGGCTAGGGTTACATTCCATATTGATGGTGACCCTGGCTGGGGGTTGAGACAGCCAATCCCGGACCCCGAGCCGGGACCCTGGTACCGGCGCCGCTCACCTGCCGCGCTCCAGGCGGCGCTCCCCGCCCCTCGCCCTCCGCCAGACAGGAGTGAGAGATGGAAGCTCGCGCCTACTC
# B18: Antisense-D2: input RNA, SEQ ID NO: 22 (nucleic acid)
# antisense: TGTGCTCGCTTCGGCAGCACATATACTAACATTGGAACGATCCTGCAGGAGAGACAGAGAGAGAGAGGCTGGTAGAGGGAAGAGACAGAAGAAAGATGAAGGGATAAGTGTCCAGAATCCCTGCCCAGCACTCTCCCAGCACCCCGGGAGGCGCCCTGCCCGGCTGGCCCCAGCG
# Tested on: TMPRSS2-ERG fusion
# Test: RT-PCR detection of induced endogenous TMPRSS2-ERG fusion transcript in LNCaP cells expressing input RNA
# Conditions: LNCaP cells transfected with input RNA plasmid, DHT for 3 days
# Experimental: LNCaP cells were cultured in this special medium for 24 hrs prior to plasmid transfection.
# Transfection was performed using Turbofect transfection reagent (Thermo Scientific, #R0531) according to manufacturer's protocol. Briefly, 1 μg of a particular plasmid was first diluted in 100 μl of the serum-free DMEM followed by immediate mixing by pipetting. 4 μl of the transfection reagent was then added to the diluted DNA followed by mixing and incubation for 20 min. The DNA/transfection reagent mixture was then added drop wise to a well containing LNCaP cells in 1 ml medium.
# For treating cultured cells, concentrated DHT stock was diluted as 10× working solutions (for example, for 0.9 μM final concentration, 10× is prepared as 9.0 μM) with the appropriate complete culture medium and used immediately. […] Six hrs post transfection, 111 μl of fresh 10× DHT working solutions was added to each well of 12-wells plate containing 1 ml medium and transfected cells.
# Briefly, cells were suspended in 200 μl of PBS buffer and were then lysed with 400 μl of lysis buffer. The sample was then passed through the filter assembly resulting in the binding of the nucleic acids to the filter. The filter containing nucleic acids was then incubated with DNase I dissolved in DNase incubation buffer to degrade genomic and plasmid DNAs. The column was then rinsed with wash buffer and total RNA then eluted in a new tube for further analysis.
# After the addition of dNTPs, the mixture was denatured at 65° C. for 5 minutes. This was followed by the addition of a master-mix containing 1× superscript buffer, 10 mM DTT, 5 mM Magnesium chloride, RNaseOUT and Superscript III reverse transcriptase. Reactions were carried out at 50° C. for 50 minutes and then terminated by incubation at 85° C. for 5 minutes. cDNA was then treated with RNase-H for 20 minutes at 37° C. to degrade RNA in DNA/RNA hybrid. 1 μl of cDNA was used as template for each subsequent PCR reaction.
# The Denaturation, Annealing and Extension steps were performed 32 cycles for induced fusion RNA and 27 cycles for input RNA.
row,Molecule,induction of endogenous TMPRSS2-ERG fusion transcript (RT-PCR)
1,B1,failed to induce fusion transcripts
2,B2,failed to induce fusion transcripts
3,B3,failed to induce fusion transcripts
4,B4,induced a clear band of 721 bp
5,B5,loss of induction
6,B6,failed to induce fusion transcripts
7,B7,clearly induced fusion transcripts
8,B8,loss of induction
9,B9,complete loss of induction
10,B10,complete loss of induction
11,B11,clearly induced fusion transcripts
12,B12,failed to induce fusion transcripts
13,B13,clearly induced fusion transcripts
14,B14,failed to induce fusion transcripts
15,B15,complete loss of induction
16,B16,loss of induction; also recorded: did not
17,B17,unable to induce fusion
18,B18,complete loss of induction

# Same assay, conditions: LNCaP cells transfected with input RNA plasmid, DHT for 3 days; listed as antisense-3
row,Molecule,induction of endogenous TMPRSS2-ERG fusion transcript (RT-PCR)
1,B17,inability of antisense-3 to induce; also recorded: did not

# Same assay, conditions: fusion gene partners TMPRSS2-ERG, LNCaP
row,Molecule,Cell line(s) identified
1,B4,LNCaP
2,B7,LNCaP
3,B11,LNCaP
4,B13,LNCaP

# From patent US12180473B2, “Chimeric RNA-driven genomic rearrangement in mammalian cells” (priority 2018, dated 2024)
